Patent US6905817B1, “Ret-independent signaling pathway for GDNF” (Licestia Ltd., priority 1998, dated 2005)
“Also recorded” adds a separate entry of the source.

What was measured:
[1] = test system: CREB-related protein ATF-1; assay: ATF-1 phosphorylation in SHEP cells; format: cell-based, human; conditions: GDNF treatment
Protocol: (§1) To assess GDNF-dependent MAPK and CREB phosphorylation in all studied cell lines, the semiconfluent cell monolayers were starved for 3 hours in serum-free medium, and then GDNF was applied for the indicated time. For the analysis of MAPK and CREB activation in Ret^−/− animals the DRG neurons were dissected from E18 mice and maintained in NGF-containing medium for 2 hours. After this time the neurons were deprived of NGF by placing them in NGF-free medium in the presence of anti-NGF antibodies. After 2 hr without NGF, the neurons were stimulated with GDNF. In the experiments involving Src-kinase inhibition, a Src-family kinase inhibitor PP2 was added at the indicated concentrations to the cell monolayers 5 min before GDNF application. In some experiments 1 μg/ml of soluble GFRα1 lacking a GPI anchor (GFRα1/Fc chimeric protein; R&D systems) was added 5 min prior to the GDNF application and was kept in the solution during the GDNF treatment, After stimulation, the cells were briefly washed with PBS/sodium vanadate and lysed in the buffer containing TBS, 2 mM EDTA, 1% NP-40, 1% Triton X-100, 1 mM PMSF, 1 mM Na3VO4 and a Complete, protease inhibitors cocktail (Boehringer Mannheim). Total cell protein for each extract was measured by MicroBSA (Pierce) and an equivalent amount of protein was resolved electrophoretically on 10% polyacrylamide gels. […]

GFRα2^−/− DRG neurons = assay: GDNF-evoked [Ca^2+]i changes, confocal microscopy, GFRα2^−/− DRG neurons; format: cell-based, mouse
Protocol: (§2) DRG from embryonic day 18 (E18) mice were treated with trypsin (Worthington), non-neuronal cells removed by preplating, and about 95% pure neurons cultured on poly-ornithine-laminin-coated glass coverslips in Ham's F14 medium (Imperial Laboratories) with serum substitute containing NGF, BDNF and NT-3 (all from PeproTech, 2 ng/ml if each) for at least 1 day before measurement. Neurotrophins were extensively washed out before GDNF application. GDNF was from PeproTech and donated by Cephalon, Inc. Ret-deficient mice (Schuchardt et al., 1994) were identified from heterozygote matings by the absence of kidneys and PCR-based genotyping. GFRα2-deficient mice were obtained from homozygote matings (Rossi et al., 1999).
(§3) [Ca^2+]i was measured using a Bio-Rad MRC-1024 confocal microscope equipped with an argon-krypton laser. The cells were loaded with 10 μM Calcium Green-1AM (Molecular Probes), a membrane permeable Ca^2+ dye, by 30 min incubation in serum free cell-culture media at 37 ° C. and 5 % CO2. After loading, the neurons were kept at room temperature in Dulbecco's PBS solution contained 20 mM HEPES (pH=7.4) for at least 20 min prior to the experiments. All compounds were applied to the bath by a peristaltic pump. 6 kD Heparin (Sigma) and Alexa 568 nm fluorescent dye (Molecular Probes) were loaded into the cells using Molecular Probes' pinocytotic influx loading reagent basically according to the manufacturer instructions. […] Cell injection was performed using Eppendorf microinjection system. The average intensity of fluorescence in the predefined ROI (Region Of Interest) was measured on-line using TimeCourse software from BioRad. The calibration of fluorescence traces was performed in vitro using Fmax and Fmin values obtained with the calcium calibration buffer kit (Molecular Probes). Because the calibration solutions may not reflect the intracellular environment, the experimental data are presented as delta [Ca^2+]i calculated using Kd=190 nM for Calcium Green-1.
Transgenic GFRα2 knock-out mice were produced in our laboratory. […]

PLCγ = PLCγ tyrosine phosphorylation (immunoprecipitation and Western blotting) in SHEP cells; format: cell-based, human
Protocol: To determine changes in GDNF-evoked PLCγ tyrosine phosphorylation the Western blotting assays were performed as described in Khare et al. (1997). Briefly, SHEP neuroblastoma cells were pre-incubated with 1 mM sodium vanadate in serum-free medium for 30 min. at 37 ° C. and then were treated at 37 ° C. with 1-100 ng/ml GDNF for 1 min. unless otherwise indicated. Incubation was stopped by the addition of ice-cold PBS buffer containing 1 mM sodium vanadate. Whole cell lysates (final protein concentration 0.1-0.3 mg/ml) were prepared at 4° C. in an extraction buffer (pH 7.5) containing 50 mM Tris-HCl, 137 mM NaCl, 1 mM sodium vanadate, 1 mM PMSF, 10% glycerol, 1% NP-40 and protease inhibitors cocktail (Boehringer). Phosphotyrosine-containing proteins were immunoprecipitated with 4G-10 antibodies (Upstate Biotechnology), collected with Protein A Sepharose beads and separated on the 7.5% SDS-PAGE. The proteins were transferred to Hybond-ECL nitrocellulose membrane, and PLCγ was assessed by Western blotting using anti-PLCγ antibodies (Upstate Biotechnology). In some experiments we first immunoprecipitated PLCγ from the cell lysate using anti-PLCγ antibodies and probed the filter with anti-phosphotyrosine 4G-10 antibodies as described above. […]

[2] = test system: wild type mouse DRG neurons; assay: GDNF-evoked [Ca^2+]i changes, confocal microscopy with Calcium Green-1AM, wild type DRG neurons; format: cell-based
Protocol: as §2, §3

CREB = CREB Ser-133 phosphorylation assay in SHEP cells; format: cell-based, human; conditions: GDNF treatment
Protocol: as §1

B1: Glial cell line—derived neurotrophic factor (protein, UniProt P39905 78-211, looked up)
Glial cell line-derived …: SPDKQMAVLPRRERNRQAAAANPENSRGKGRRGQRGKNRGCVLTAIHLNVTDLGLGYETKEELIFRYCSGSCDAAETTYDKILKNLSRNRRLVSDKVGQACCRPIAFDDDLSFLDDNLVYHILRKHSAKRCGCI
notes: TGF-β family-related neurotrophic protein; from PeproTech and donated by Cephalon, Inc
phosphorylation / activation of ATF-1 [1]: induced phosphorylation of the CREB-related protein ATF-1; also recorded: robust GDNF-dependent activation of the CREB-related protein ATF-1
change in [Ca^2+]i (GFRα2^−/− DRG neurons; GDNF 100 ng/ml, normal external Ca^2+): evoked both transient and sustained [Ca^2+]i elevation; also recorded: same pattern of fast and slow kinetics of Ca^2+ elevation as the wild type neurons
change in [Ca^2+]i (GFRα2^−/− DRG neurons; GDNF after nominal removal of extracellular calcium (about 20 μM)): profound rapid and oscillatory (5 out of 9 cells) [Ca^2+]i increase
time to return to basal tyrosine phosphorylation levels of PLCγ (PLCγ; GDNF): ≤ 5 min
PLCγ tyrosine phosphorylation (PLCγ; GDNF 1-100 ng/ml, 1 min): significantly increased PLCγ tyrosine phosphorylation; also recorded: dose-dependent increase in PLCγ tyrosine phosphorylation
wild type DRG neurons in which GDNF-evoked changes in [Ca^2+]i were observed [2]: 60-70%
change in [Ca^2+]i ([2]; GDNF 10 ng/ml): induced a rapid transient increase in [Ca^2+]i
change in [Ca^2+]i ([2]; GDNF concentrations over 10 ng/ml (10-100 ng/ml)): evoked rapid and long-lasting elevations in [Ca^2+]i; also recorded: evoked both a transient and slow long-lasting elevation in [Ca^2+]i
phosphorylation of CREB in Ser-133 site (CREB): potently induced phosphorylation of CREB
